Legend:
[1] = molecular target: T1, PdG-D-LDH (Nocardiopsis eucommiae, UniProt A0A975LBX7); experiment: X-ray crystal structure; HPLC of released flavin; assay type: binding; conditions: non-covalent, active site; co-purified
T1 construct: gene KGD82_12890; N-terminal His6 tag (pET15b), codon-optimised synthetic gene, E. coli Tuner; no tag cleavage told; homodimer (97 kDa) fraction

[2] = molecular target: T1, PdG-D-LDH; experiment: X-ray crystal structure of complex (soak); assay type: binding; conditions: 20 mM D-lactate soaked 10 min; active site, coordinated to Fe(II)
[3] = molecular target: T1, PdG-D-LDH; experiment: product inhibition, DCIP reduction assay; assay type: biochemical
[4] = substrate: O=C1C=C(S(=O)(=O)O)c2ccccc2C1=O; experiment: apparent steady-state kinetics, absorbance; assay type: biochemical, Nocardiopsis eucommiae; conditions: electron acceptor, 20 mM sodium D-lactate, 100 mM phosphate, pH 7.5, 25 °C
Text: apparent steady-state kinetics, absorbance on PdG-D-LDH

[5] = substrate: O=C1C=CC(=O)C=C1; experiment: purified protein; assay type: biochemical, Nocardiopsis eucommiae; conditions: electron acceptor, 20 mM sodium D-lactate, 100 mM phosphate, pH 7.5, 25 °C
[6] = substrate: C[C@H](O)C(=O)O; experiment: purified protein; conditions: 0.075 mM DCIP as electron acceptor, 100 mM glycine-NaOH, pH 9, 25 °C
[7] = substrate: C[C@@H](O)C(=O)O; experiment: purified protein; conditions: 0.075 mM DCIP as electron acceptor, 100 mM glycine-NaOH, pH 9, 25 °C

`Cc1cc2nc3c(=O)[nH]c(=O)nc-3n(C[C@H](O)[C@H](O)[C@H](O)COP(=O)(O)OP(=O)(O)OC[C@H]3O[C@@H](n4cnc5c(N)ncnc54)[C@H](O)[C@@H]3O)c2cc1C` [FAD] was tested, and the “X-ray crystal structure; HPLC of released flavin” value [1] was “The structure contains a non-covalently bound FAD at the active site”.

With `C[C@@H](O)C(=O)O` [D-lactate] the “X-ray crystal structure of complex (soak)” value [2] was “a metal ion and the substrate D-lactate (in PdG-D-LDH-lactate complex) are clearly defined”.

`CC(=O)C(=O)O` [pyruvate] showed an IC50 [3] of 53 mM.

B1: PdG-D-LDH (Nocardiopsis eucommiae) (protein)
chain: MPGVVEELVAAIGTEQVVTDPAVMEGYSHDEAEWAPYGAPAAVVRPRDTADVAAVVRVCARSGVAVVGRGAGTGLSGAANSGRGWVVVSFERMNRVLEVDTVQQTATVQPGVVNDDLRARVAQDGLWYPPDPASAPWSTIGGNVATNAGGLCCVKYGVTRDYVLGMEAVVGTGEVVRLGRTTAKGVTGYDLAGLMVGSEGTLGLVTEVTLRLVPLRRGVEHTVVGYFDSLTDAGRAVAAVSAAGIVPSALELIDRFCLQAVDEWKNMGLSAEGEVLLLARSDLPGASGQEEADRILECFEQEKAVYAVRSTDKEEAEALFQARRLAYPALERLGPLLTEDVCVPKARVPHMLEAIEAAGERFDTRIGNIAHAGDGNLHPLFIVPAGDEEAKRRAKQAFEVIVDEALAVGGTVTGEHGVGLLKMRGAADELGPHVLAMHRAVKGALDPEGIFNPGKVFALEEA
notes: N-terminal His6 tag (pET15b), codon-optimised synthetic gene, E. coli Tuner; no tag cleavage told; homodimer (97 kDa) fraction
In the case of B1, the Km [4] is reported as 0.08 ± 0.01 mM, the kcat [4] is reported as 0.95 ± 0.04 s⁻¹ and the kcat/Km [4] is reported as 12000 ± 2000 M⁻¹ s⁻¹. It also gave a Km [5] of 0.02 ± 0.01 mM, a kcat [5] of 1.8 ± 0.1 s⁻¹ and a kcat/Km [5] of 80000 ± 30000 M⁻¹ s⁻¹. For the same molecule, the Km [6] was 59 ± 5 mM, the kcat [6] was 4.7 s⁻¹ and the kcat/Km [6] was 79 M⁻¹ s⁻¹. The Km [7] was 1.0 ± 0.1 mM, the kcat [7] was 8.2 s⁻¹ and the kcat/Km [7] was 8000 M⁻¹ s⁻¹.

From PMC12724367 (Applied and Environmental Microbiology, 2025)
